From paper doi:10.1101/2020.04.09.012385

Target: mouse DLX2 (Mus musculus, UniProt P40764 1-332)
Assay: EMSA

Sequence of mouse DLX2 (P40764 whole entry): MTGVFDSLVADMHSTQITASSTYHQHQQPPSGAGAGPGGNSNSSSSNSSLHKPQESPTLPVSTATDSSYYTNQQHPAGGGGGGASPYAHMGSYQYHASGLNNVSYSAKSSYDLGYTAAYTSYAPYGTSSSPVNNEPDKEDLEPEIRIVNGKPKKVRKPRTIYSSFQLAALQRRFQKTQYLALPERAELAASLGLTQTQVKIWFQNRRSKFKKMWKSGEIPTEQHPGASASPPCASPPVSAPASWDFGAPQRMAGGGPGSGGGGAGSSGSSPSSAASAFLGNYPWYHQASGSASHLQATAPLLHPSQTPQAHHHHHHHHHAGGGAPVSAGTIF

B1: mR6ii (dsDNA)
DNA 1: GATCCCGCCCCAATAGGTACTAATGACTGCCTGGGTGTCTACACTCACCG
DNA 2: CGGTGAGTGTAGACACCCAGGCAGTCATTAGTACCTATTGGGGCGGGATC
**Q.** Does B1 bind?
**A.** Result: no binding
